This note sets out measurements from patent US20160024210A1 (AstraZeneca / MedImmune, published 2016).

For test [1], the target named is T1, human H7CR (B7-H7 counter-receptor) (human, UniProt Q96BF3 23-282).
T1 construct: Used for H7CR on CHO.hH7CR transfectants, human T cells and tonsil tissue; also called B7-H7CR; CD28H
T1 sequence: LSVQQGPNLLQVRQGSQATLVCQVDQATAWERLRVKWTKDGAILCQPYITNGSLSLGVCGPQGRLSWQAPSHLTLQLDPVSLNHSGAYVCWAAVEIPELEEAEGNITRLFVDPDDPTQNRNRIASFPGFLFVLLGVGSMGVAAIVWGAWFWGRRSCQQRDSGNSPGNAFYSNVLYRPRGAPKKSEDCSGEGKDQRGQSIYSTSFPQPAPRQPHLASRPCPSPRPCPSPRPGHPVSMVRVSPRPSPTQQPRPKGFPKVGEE
The test can be described thus: binding to human H7CR as endogenously expressed on the surface of a cell.

Test [2] concerns the target T2, H7CR-GFP fusion protein on transfected CHO cells (Homo sapiens (Human), UniProt Q96BF3 23-282).
T2 construct: not shown: GFP part
T2 sequence: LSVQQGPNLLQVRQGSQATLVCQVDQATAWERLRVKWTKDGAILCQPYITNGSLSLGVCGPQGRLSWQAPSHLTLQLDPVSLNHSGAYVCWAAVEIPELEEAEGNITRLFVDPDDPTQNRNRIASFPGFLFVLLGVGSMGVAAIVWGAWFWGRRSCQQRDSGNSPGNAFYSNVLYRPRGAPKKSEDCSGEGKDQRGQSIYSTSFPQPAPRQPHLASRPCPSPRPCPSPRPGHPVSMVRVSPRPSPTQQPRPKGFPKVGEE
The test can be described thus: flow cytometry, 5 µg/ml variant on H7CR-GFP transfected CHO cells, anti-hIg PE secondary antibody [row HC2-2, column LC1-3]. The procedure:
(§1) 5 μg/ml antibodies from thirty-six variants were incubated with H7CR-GFP fusion protein transfected CHO cells for 30 min at room temperature. Cells were then washed twice with 2 ml flow cytometry buffer, and resuspended in 100 μl flow cytometry buffer. 1 μl anti-hIg PE secondary antibody (Biolegend) was added and incubated with the cells for 15 mins Samples were then washed and resuspended in 100 μl flow cytometry buffer. Flow Cytometry data was acquired using BD Canto (BD Biosciences) in plate format and analyzed by FlowJo software.

Test [3] concerns the target T2, H7CR-GFP fusion protein on transfected …. The test can be described thus: flow cytometry, 5 µg/ml variant on H7CR-GFP transfected CHO cells, anti-hIg PE secondary antibody [row HC2-2, column LC2-2]. The procedure:
as §1

Test [4] shares this target. As to the kind of experiment: flow cytometry, 5 µg/ml variant on H7CR-GFP transfected CHO cells, anti-hIg PE secondary antibody [row HC2-3, column LC1-3]. The procedure: as §1
The target is the same in test [5]. The test can be described thus: flow cytometry, 5 µg/ml variant on H7CR-GFP transfected CHO cells, anti-hIg PE secondary antibody [row HC2-3, column LC2-2]. The procedure:
as §1

The target is the same in test [6]. The test can be described thus: flow cytometry, 5 µg/ml variant on H7CR-GFP transfected CHO cells, anti-hIg PE secondary antibody [row HC2-2, column LC2-3]. The procedure: as §1
Test [7] has the same target. As to the kind of experiment: flow cytometry, 5 µg/ml variant on H7CR-GFP transfected CHO cells, anti-hIg PE secondary antibody [row HC2-3, column LC2-1]. The procedure: as §1
The target is the same in test [8]. As to the kind of experiment: flow cytometry, 5 µg/ml variant on H7CR-GFP transfected CHO cells, anti-hIg PE secondary antibody [row HC2-3, column LC1-1]. The procedure:
as §1

Test [9] has the same target. As to the kind of experiment: flow cytometry, 5 µg/ml variant on H7CR-GFP transfected CHO cells, anti-hIg PE secondary antibody [row HC2-3, column LC2-3]. The procedure:
as §1

The target is the same in test [10]. The test can be described thus: flow cytometry, 5 µg/ml variant on H7CR-GFP transfected CHO cells, anti-hIg PE secondary antibody [row HC2-2, column LC2-1]. The procedure:
as §1

For test [11] the target is unchanged. As to the kind of experiment: flow cytometry, 5 µg/ml variant on H7CR-GFP transfected CHO cells, anti-hIg PE secondary antibody [row HC2-3, column LC1-2]. The procedure:
as §1

B1: 4.5 humanized variant 27 (HC2-2 / LC1-3) (antibody, V domains shown)
VH: QITLKESGPTLVKPTQTLTLTCTVSGFSITTGGYYWNWIRQPPGKKLEWLALIYTSGRTSYNPSLKSRLTITKDTSKNQVVLTMTNMDPVDTATYYCADMADKGGWFAYWGQGTLVTVSS
VL: DIVMTQSPDSLAVSLGERATINCLSSQSLFSSNTKRNYLNWYQQKPGQSPKLLIYHASTRLSGVPDRFSGSGSGTDFTLTISSLQAEDVADYFCQQHYETPLTFGDGTRLEIK
notes: Variable domains only; detected with anti-hIg secondary; also called VH2B / VL1C
Consider B1, for which the binding result in [1] and in test [2] was “binds” in each case.

B2: 4.5 humanized variant 29 (HC2-2 / LC2-2) (antibody, V domains shown)
VH: QITLKESGPTLVKPTQTLTLTCTVSGFSITTGGYYWNWIRQPPGKKLEWLALIYTSGRTSYNPSLKSRLTITKDTSKNQVVLTMTNMDPVDTATYYCADMADKGGWFAYWGQGTLVTVSS
VL: DIVMTQTPLSLPVTPGEPASISCRSSQSLFSSNTKRNYLNWYLQKPGQSPKLLIYHASTRLSGVPDRFSGSGSGTDFTLKISRVEAEDVGDYFCQQHYETPLTFGDGTRLEIK
notes: Variable domains only; detected with anti-hIg secondary; also called VH2B / VL2B
In the case of B2, the binding result in test [3] and in test [1] was “binds” throughout.

B3: 4.5 humanized variant 33 (HC2-3 / LC1-3) (antibody, V domains shown)
VH: QIQLKESGPTLVKPTQTLTLTCTVSGFSITTGGYYWNWIRQPPGKKLEWMALIYTSGRTSYNPSLKSRLTITKDTSKNQVVLTMTNMDPVDTATYYCADMADKGGWFAYWGQGTLVTVSS
VL: DIVMTQSPDSLAVSLGERATINCLSSQSLFSSNTKRNYLNWYQQKPGQSPKLLIYHASTRLSGVPDRFSGSGSGTDFTLTISSLQAEDVADYFCQQHYETPLTFGDGTRLEIK
notes: Variable domains only; detected with anti-hIg secondary; also called VH2C / VL1C
As to B3, the binding result in [1] and in test [4] was “binds” in each case.

B4: 4.5 humanized variant 35 (HC2-3 / LC2-2) (antibody, V domains shown)
VH: QIQLKESGPTLVKPTQTLTLTCTVSGFSITTGGYYWNWIRQPPGKKLEWMALIYTSGRTSYNPSLKSRLTITKDTSKNQVVLTMTNMDPVDTATYYCADMADKGGWFAYWGQGTLVTVSS
VL: DIVMTQTPLSLPVTPGEPASISCRSSQSLFSSNTKRNYLNWYLQKPGQSPKLLIYHASTRLSGVPDRFSGSGSGTDFTLKISRVEAEDVGDYFCQQHYETPLTFGDGTRLEIK
notes: Variable domains only; detected with anti-hIg secondary; also called VH2C / VL2B
For the molecule B4, the binding result in test [1] and in test [5] was “binds” each time.

B5: 4.5 humanized variant 30 (HC2-2 / LC2-3) (antibody, V domains shown)
VH: QITLKESGPTLVKPTQTLTLTCTVSGFSITTGGYYWNWIRQPPGKKLEWLALIYTSGRTSYNPSLKSRLTITKDTSKNQVVLTMTNMDPVDTATYYCADMADKGGWFAYWGQGTLVTVSS
VL: DIVMTQTPSSLPVTPGEPASISCLSSQSLFSSNTKRNYLNWYLQKPGQSPKLLIYHASTRLSGVPDRFSGSGSGTDFTLKISRVEAEDVGDYFCQQHYETPLTFGDGTRLEIK
notes: Variable domains only; detected with anti-hIg secondary; also called VH2B / VL2C
Consider B5, for which the binding result in test [6] and in test [1] was “binds” throughout.

B6: 4.5 humanized variant 34 (HC2-3 / LC2-1) (antibody, V domains shown)
VH: QIQLKESGPTLVKPTQTLTLTCTVSGFSITTGGYYWNWIRQPPGKKLEWMALIYTSGRTSYNPSLKSRLTITKDTSKNQVVLTMTNMDPVDTATYYCADMADKGGWFAYWGQGTLVTVSS
VL: DIVMTQTPLSLPVTPGEPASISCRSSQSLFSSNTKRNYLDWYLQKPGQSPQLLIYHASYRASGVPDRFSGSGSGTDFTLKISRVEAEDVGVYYCQQHYETPLTFGQGTRLEIK
notes: Variable domains only; detected with anti-hIg secondary; also called VH2C / VL2A
In the case of B6, the binding result in [1] and in test [7] was “binds” in each case.

B7: 4.5 humanized variant 31 (HC2-3 / LC1-1) (antibody, V domains shown)
VH: QIQLKESGPTLVKPTQTLTLTCTVSGFSITTGGYYWNWIRQPPGKKLEWMALIYTSGRTSYNPSLKSRLTITKDTSKNQVVLTMTNMDPVDTATYYCADMADKGGWFAYWGQGTLVTVSS
VL: DIVMTQSPDSLAVSLGERATINCKSSQSLFSSNTKRNYLAWYQQKPGQPPKLLIYHASTRESGVPDRFSGSGSGTDFTLTISSLQAEDVAVYYCQQHYETPLTFGQGTRLEIK
notes: Variable domains only; detected with anti-hIg secondary; also called VH2C / VL1A
For B7, the binding result in [1] and in test [8] was “binds” each time.

B8: 4.5 humanized variant 36 (HC2-3 / LC2-3) (antibody, V domains shown)
VH: QIQLKESGPTLVKPTQTLTLTCTVSGFSITTGGYYWNWIRQPPGKKLEWMALIYTSGRTSYNPSLKSRLTITKDTSKNQVVLTMTNMDPVDTATYYCADMADKGGWFAYWGQGTLVTVSS
VL: DIVMTQTPSSLPVTPGEPASISCLSSQSLFSSNTKRNYLNWYLQKPGQSPKLLIYHASTRLSGVPDRFSGSGSGTDFTLKISRVEAEDVGDYFCQQHYETPLTFGDGTRLEIK
notes: Variable domains only; detected with anti-hIg secondary; also called VH2C / VL2C
For B8, the binding result in [9] and in [1] was “binds” throughout.

B9: 4.5 humanized variant 28 (HC2-2 / LC2-1) (antibody, V domains shown)
VH: QITLKESGPTLVKPTQTLTLTCTVSGFSITTGGYYWNWIRQPPGKKLEWLALIYTSGRTSYNPSLKSRLTITKDTSKNQVVLTMTNMDPVDTATYYCADMADKGGWFAYWGQGTLVTVSS
VL: DIVMTQTPLSLPVTPGEPASISCRSSQSLFSSNTKRNYLDWYLQKPGQSPQLLIYHASYRASGVPDRFSGSGSGTDFTLKISRVEAEDVGVYYCQQHYETPLTFGQGTRLEIK
notes: Variable domains only; detected with anti-hIg secondary; also called VH2B / VL2A
Take B9: the binding result in test [1] and in [10] was “binds” throughout.

B10: 4.5 humanized variant 32 (HC2-3 / LC1-2) (antibody, V domains shown)
VH: QIQLKESGPTLVKPTQTLTLTCTVSGFSITTGGYYWNWIRQPPGKKLEWMALIYTSGRTSYNPSLKSRLTITKDTSKNQVVLTMTNMDPVDTATYYCADMADKGGWFAYWGQGTLVTVSS
VL: DIVMTQSPDSLAVSLGERATINCKSSQSLFSSNTKRNYLNWYQQKPGQPPKLLIYHASTRLSGVPDRFSGSGSGTDFTLTISSLQAEDVADYFCQQHYETPLTFGDGTRLEIK
notes: Variable domains only; detected with anti-hIg secondary; also called VH2C / VL1B
As to B10, the binding result in [11] and in [1] was “binds” in each case.
